Measurements reported in PMC10164138 (Structure (London, England : 1993), 2023).

Biological target: the molecule itself
Experiment: cryo-EM structure

B1: CfaB, major pilin subunit of CFA/I pili (natural protein, enterotoxigenic Escherichia coli (ETEC), UniProt P0CK93 24-170, looked up)
chain: VEKNITVTASVDPAIDLLQADGNALPSAVKLAYSPASKTFESYRVMTQVHTNDATKKVIVKLADTPQLTDVLNSTVQMPISVSWGGQVLSTTAKEFEAAALGYSASGVNGVSSSQELVISAAPKTAGTAPTAGNYSGVVSLVMTLGS
binding result: binds
